In patent US20110286916A1 (published 2011):

These binders were tested against T1, human full-length Notch1 with C-terminal FLAG tag, stably expressed on 293 FlpIn (TREx) cells (human, UniProt P46531 19-2555) (assay: FACS, phage scFv).
T1 construct: tetracycline/doxycycline-induced expression from pcDNA5/FRT/TO-HN1+FLAG; also called hN1; 293_N1

| Binder | binding result |
| --- | --- |
| N1wc99 (scFv, V domains shown, phage scFv) VH: QVQLVQSGAEVKKPGASVKVSCKASGYTFTSYGISWVRQAPGQGLEWMGWISAYNGNTNYAQKLQGRVTMTTDTSTSTAYMELRSLRSDDTAVYYCARLASRAFDIWGRGTLVTVSS VL: QSVLTQPASVSGSPGQSITISCTGTSSDVGGYNYVSWYQQHPGKAPKLMIYEGSKRPSGVSNRFSGSKSGNTASLTISGLQAEDEADYYCSSYTTRSTRVFGGGTKLTVL | binds |
| N1wc145 (scFv, V domains shown, phage scFv) VH: EVQLVESGAEVKKPGASVKVSCKASGYTFTTYGISWVRQAPGQGLEWMGWISTYNGNTKYAQKLQGRVTMTTDTSTSTAYMELRSLRSDDTAVYYCARDARKAFDIWGRGTLVTVSS VL: HVILTQPRSVSGSPGQSITISCTGTSSDVGGYNYVSWYQQHPGKAPKLMIYEGSKRPSGVSNRFSGSKSGNTASLTISGLQAEDEADYYCSSYTTRSTRVFGGGTKLTVL | binds |
| N1wc48 (scFv, V domains shown, phage scFv) VH: QVQLVQSGAEVKKPGATVKISCKVSGYTFTDYYIHWVQQAPGKGLEWMGLVDPEDGETIYAEKFQGRVTIIADTSTDTAYMELSSLRSEDTAVYYCATGPFRLDSWGQGTMVTVSS VL: QSVLTQPPSVSGAPGQRVTISCTGSSSNIGAGYDVHWYQQLPGSAPKLLIYGNNNRPSGVPDRFSGSKSGTSASLAITGLQAEDEADYYCQSFDNRLSDFNVFGTGTKVTVL | binds |
| N1wc106 (scFv, V domains shown, phage scFv) VH: QVQLVQSGAEVKRPGASVNLSCKASGYSFSRYYIHWVRQAPGQGLELMGRINPGGGTTTYAQKFQGRVTLSRDTSTNTIFMELNGLTSEDTAMYYCARSNYDILAGYGPDAFDFWGRGTLVTVSS VL: QAVLTQPSSVSGAPGQRVTISCTGSSSNIGADNDVHWYQKFPGTAPKLLIFSNNNRPSGVPDRFSGSKSGTSASLAITGLQADDEADYYCQSYDSGLTRELFGGGTKLTVL | binds |
| N1wc142 (scFv, V domains shown, phage scFv) VH: EVQLVQSGAEVKKPGASVNLSCKASGYSFSRYYIHWVRQAPGQGLELMGRINPGGGTTTYAQKFQGRVTLSRDTSTNTIFMELNGLTSEDTAMYYCARSNYDILAGYGPDAFDFWGRGTMVTVSS VL: QSVLTQPPSVSGAPGQRVTISCIGSNSNIGAGHDVHWYQQFPGTAPKLLIYDNTNRPSGVPDRFSGSKSGTSVSLAITGLQAEDEADYYCQSYDSSLGEVFGGGTKLTVL | binds |
| hN1S3-146 (scFv, V domains shown, phage scFv) VH: EVQLVQSGPEVKKPGTSVKVSCKASGFTFTSSAVQWVRQARGQRLEWIGWIVVGSGNTNYAQKFQERVTITRDMSTSTAYMELSSLRSEDTAVYYCVADTVYWGKGTLVTVSS VL: QAVLTQPSSVSEAPRQRVTISCSGSSSNIGKNAVNWYQQLPGKAPKLLIYYDDLMPSGVSDRFSGSKSGTSASLAISGLQSEDEADYFCAAWDDSLSGWVFGGGTKLTVL | binds |
| N1wc158 (scFv, V domains shown, phage scFv) VH: EVQLVQSGAEVKKPGASVKVSCKASGYNFTGYYMHWVRQAPGQGLEWMGWINPNSGGTNYAQKFQGRVTMTRDTSISTAYMELSRLRSDDTAVYYCATDSFDYWGRGTLVTVSS VL: not shown | binds |
| N1wc103 (scFv, V domains shown, phage scFv) VH: QVQLQQSGAEVKKPGASVKVSCKASGYNFTGYYMHWVRQAPGQGLEWMGWINPNSGGTNYAQKFQGRVTMTRDTSISTAYVELSRLRSDDTAVYYCATDSFDYWGRGTLVTVSS VL: not shown | binds |
| hN1S3-126 (scFv, V domains shown, phage scFv) VH: EVQLVQSGAEVKKPGASVKVSCKASGYNFTGYYMHWVRQAPGQGLEWMGWINPNSGGTNYAQKFQGRVTMTRDTSISTAYMELSRLRSDDTAVYYCATDSFDYWGQGTLVTVSS VL: SYVLTQPPSASGAPGQRVTISCSGSISNIGDNTVNWYQHLPRTAPKLVIYSDVQRPSGVPERFSGSKSGTSASLVISGLQAEDEADYYCASWDDSLDGVFFGGGTKLTVL | binds |
| N1wc110 (scFv, V domains shown, phage scFv) VH: EVQLVQSGAEVKKPGASVKVSCKASGYNFTGYYMHWVRQAPGQGLEWMGWINPNSGGTNYAQKFQGRVTMTRDTSISTAYMELSRLRSDDTAVYYCATDSFDYWGQGTMVTVSS VL: QSVVTQPPSASGSPGQRVTIACSGSSSNIGSNTVNWYQHVPGTAPKLLIYNNNQRPSGVQDRFSGSKSDTSASLAISGLQAEDEAVYYCATWDDSLIGLAFGGGTKLTVL | binds |
| hN1S3-174 (scFv, V domains shown, phage scFv) VH: EVQLVQSGAEVKKPGASVKVSCKASGYNFTGYYMHWVRQAPGQGLEWMGWINPNSGGTNYAQKFQGRVTMTRDTSISTAYMELSRLRSDDTAVYYCATDSFDYWGQGTTVTVSS VL: QSVLTQPPSVSGAPGQRITISCTGSSSNIGAGYDVHWYQQLPGTAPKLLIYGNSYRPSGVPDRFSGSKSGTSASLAITGLQAEDEADYYCQSYDSSLTGSIFGGGTKLTVL | binds |
| hN1S3-050 (scFv, V domains shown, phage scFv) VH: not shown VL: LPVLTQPPSASGTPGQRVTISCSGRSSNIGSNFVYWYQQLPGTAPKLLIYRNNQRPSGVPDRFSGSKSGTSASLAISGLRSEDEADYYCATWDDNLSGVVFGGGTKLTVL | binds |
| hN1S3-113 (scFv, V domains shown, phage scFv) VH: EVQLVQSGAEVKKPGASVKVSCKASGYNFTGYYMHWVRQAPGQGLEWMGWINPNSGGTNYAQKFQGRVTMTRDTSISTAYMELSRLRSDDTAVYYCATDSFDYWGRGTLVTVSS VL: SYVLTQPPSASGTPGQRVTISCSGSSPNIGSNTVNWYQQLPGTAPKLLIYTNNQRPSGVPDRFSGSKSATSASLAISGLQFDDEADYFCAAWDDSLLGVVFGGGTKVTVL | binds |
| hN1S3-010 (scFv, V domains shown, phage scFv) VH: EVQLVQSGAEVKKPGASVKVSCKASGYNFTGYYMHWVRQAPGQGLEWMGWINPNSGGTNYAQKFQGRVIMTRDTSISTAYMELSRLTSDDTAVYYCATDSFDYWGRGTMVTVSS VL: not shown | binds |
| N1wc104 (scFv, V domains shown, phage scFv) VH: QVQLQESGPGLVKPSGTLSLTCAVSGVSLATNNWWLWVRQSPGKGLEWIGEIYHSGYTNYNPSLKSRVTISVDKSSNQLSLDLRSITAADTAVYYCARRYCDNGVCYPFDHWGQGTMVTVSS VL: SYVLTQPPSVSEAPRQTVTISCSGNSFNIGRYPVNWYQQLPGKAPKLLIYYNNLRFSGVSDRFSGSKSGTSASLAIRDLLSEDEADYYCSTWDDTLKGWVFGGGTKLTVL | binds |
| N1wc33 (scFv, V domains shown, phage scFv) VH: EVQLVESGGDLVQPGGSLRLSCAASGFTFSDSWMHWVRQVPGKGLEWVSHIGIDGITTNYADSVKGRFTISRDNAKNTLYLQMNNLRAEDTAVYYCARNVGWESRPWGQGTLVTVSS VL: SYVLTQPPSASGAPGQRVTISCSGSDSNIGRNTVNWYQQQLPGTAPTLLIYTNNQRPSGVPDRFSGSKSGTSASLAISGLQSGDEADYYCAAWDDSLNAYFFGPGTKLTVL | binds |
| N1wc152 (scFv, V domains shown, phage scFv) VH: QVQLVQSGGGLVQPGGSLRLSCGASGFTFSSHWMSWVRRPPGRGLEWVANINEGGSAEYYADSLKGRFTISRDNAKNSLFLQMDSLRAEDTAVYYCVRDQFHSNYDWGQGTMVTVSS VL: QAVLTQPSSVSGAPGQRVTISCTGSSSNIGAPFDVHWYQQLPGTAPKLLIYGNSNRPSGVPDRFSGSKFGTSASLAITGLQAADEADYYCQSYDSSLSGWVFGGGTKLTVL | binds |
| hN1S3-052 (scFv, V domains shown, phage scFv) VH: QVQLVQSGAEVKKPGASVRISCKTSGFTFTSYFIHWVRQAPGQRPEWMGVINPSRGNADYAPRFRGRVTMTRDKSTHTVYMDLKSLRSDDAAIYYCARDRLGGLLDYYDSSDSSKNFDAFDFWGQGTLVTVSS VL: QAVLTQPSLASGTPGQRVTISCSGGSSNIGRHTVNWYQQLPGAAPKLLMHSSDQRPSGVPDRFSGSKSGTSASLAISGLQSEDEADYYCAAWDASLKNWVFGGGTKLTVL | binds |
| hN1S3-067 (scFv, V domains shown, phage scFv) VH: EVQLVQSGAEVKKPGASVRISCKTSGFTFTSYFIHWVRQAPGQRPEWMGVINPSRGNADYAPRFRGRVTMTRDKSTHTVYMDLKSLRSDDAAIYYCARDRLGGLLDYYDSSDSSKNFDAFDFWGQGTLVTVSS VL: NFMLTQPHSVSESPGKTVIISCTRSSGSIASNYVQWLQQRPGSSPTTVIYDDNRRPSGVPDRFSGSIDGSSNSASLTISGLKTEDEADYYCQSYDRFDHVVFGGGTKLTVL | binds |
| hN1S3-073 (scFv, V domains shown, phage scFv) VH: QVQLVQSGAEVKKPGASVRISCKTSGFTFTSYFIHWVRQAPGQRPEWMGVINPSRGNADYAPRFRGRVTMTRDKSTHTVYMDLKSLRSDDAAIYYCARDRLGGLLDYYDSSDSSKNFDAFDFWGQGTLVTVSS VL: DIQMTQSPSSLSAFVGDRVTITCRASQGINNYLAWFQQKPGKAPKSLIYAASTLRSGVPPRFSGSGSGTDFTLTISSLQPEDFATYYCQQYDSYPHTFGQGTRLEIK | binds |
| N1wc137 (scFv, V domains shown, phage scFv) VH: QVQLVQSGAEVKKPGASVKVSCKASGYTFTNYGLSWVRQAPGQGLEWMGWISGYNDNTSYAQKFQDRITMTTDTSTSTASMELRSLRSDDTAVYYCAFSYYDSSGYFNWGQGTMVTVSS VL: QAVLTQPSSVSGAPGQRVTVSCTGSSSNIGTGYAVHWYQQLPGTAPRLLIFGNNNRPSGVPDRFSGSKSGTSASLVITGLQAEDEADYYCQSFDTLSGSRVFGGGTKVTVL | binds |
| N1wc140 (scFv, V domains shown, phage scFv) VH: QVQLQQSGAEVKKPGSSVKVSCRASGGTFSNYAISWVRQAPGQGLEWMGRIIPIFGGAHYAQKLQGRVSITADESTSTAHMELSSLRSEDAAVYYCASGAYYDVMGNYPYSGMDVWGRGTLVTVSS VL: SYVLTQPPSVSVSPGQTAKITCGGDKIETKSVHWYQQKPGQAPVLVIYEDTKRPSGISERLSGSSAGTVATLTITGAQVDDEADYFCYSTDATGTERVFGGGTKLTVL | binds |
| N1wc112 (scFv, V domains shown, phage scFv) VH: EVQLVESGGGLAQPGKSLRISCAASGFTFGDYAMTWVRQAPGKGLEWVSSISGSGSGTYYTDSVKGRFAISRDNSKNTLYPQMNSLAAEDTAIYFCAKDQTDVTIRDFDYWGRGTLVTVSS VL: SYELTQPPSVSVAPGQTARISCGGDNLGRKSVHWYQQKPGQAPVLVIYEDSKRPSGIPERFSGSSSGTMATLTISGAQVEDEADYYCYSTDSSGNHRVFGGGTKVTVL | binds |
